Experimental data published in the nanobody polyreactivity screen of Harvey et al. (2022).

Assay: yeast display, Sf9 membrane polyspecificity reagent, FACS + sequencing; frameworks hold sequencing errors
In short: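 Nanobodies from a synthetic yeast display library (Saccharomyces cerevisiae BJ5465), induced 36–48 hours with galactose, were stained 1 hour at 4 °C with 10% biotinylated, detergent-solubilized Sf9 membrane reagent, enriched on streptavidin microbeads, then FACS-sorted. Anti-HA (expression) and streptavidin (reagent binding) fluorescence set low and high (top ~1%) gates. Polyreactivity labels come from the gate of origin. Genes were colony-PCR amplified, MiSeq 2 × 250 sequenced and filtered by CDR length.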

Sequence | polyreactivity (PSR sort gate)
QVQHVESGGGLDQGRGSLSLSCAASARNLSSNVLGRYRQAPGNETEFVASITYSGSSTYYADSVKGRFTISRDYAKNTFYLQMNSLKPEDTAVYYCATRYGYSDGDYWGQGTQVTVSS | low polyreactivity
QVQHVESGGGLGQAGGSLRLSCAASGRTFDGNVKGWYIQAPGKERELVAAMTASGARTYYADSVKRRFTISRDNAKNTVYLQMNSLKPEDTAVYYCAAVCRRVSAWYYYWGQGTQVTVSS | high polyreactivity
QVQHVESGGGLLQAGGSLRLSCAASGMGWYRQAPGKERELVAVIRWSSGSTYYADSVKGRFTISRDNAKNTVYLQMNSLKPDDTAVYYCNARDQYYGDPSSQPDTRSRSDYWGQGTQVTVSS | low polyreactivity
QVQHVESGGGLVLAGGSLRLSCAASGRTFAYNAMGWYRQAPGKERELVAAISRSGGSTYYADSVKGRFTISRDNPKNTVYLQMYSLKPEDTAVYYSNKVTHSYVYFAAGDYWGQGTQVTVSS | high polyreactivity
QVQHVESGGGLVQAGASLRLSCAASGTTFIGYERGRSRQAPGKVRELVAAISYSDGTYYADSVKGRFTISRENAKNTVYLQMNSLKPEDTAVYYCAADSLFYRYDYWGQGTQVTVSS | low polyreactivity
QVQHVESGGGLVQAGCSLRLSCAASGSIFVIYAMGWYRQAPGKERELVAAIRSTGSSNYADSVKGRFTISRDNAKNTVYLQMNSLKPEDTAVYYCAAYRRRTYAVNIEGGYWGQGTQVTVSS | high polyreactivity
QVQHVESGGGLVQAGGGLRISCAASGSIFHVNAMGWSRLAPGKERELVAGISDGGSTYYADSVKGRFTFSRDTAKHTVYLQLNSLKPEDTAVYYSGAECEQWYSYVLSYDWEYDYWGQGTQVTVSS | low polyreactivity
QVQHVESGGGLVQAGGRLRLSCAASGSIFYSNAIGWYRQAPGKEWELVATITWSGGRTYYADSVKGRFTISRDNAKNTVYLQMNSLKPEDTAVYYCAAVSIYWGQGTQVTVSS | low polyreactivity
QVQHVESGGGLVQAGGSHRLSCAASGRIFTQNSMGWYRQAPGKERELVAAINATDGSTYADSVKGRFTISRDNAKNTVYLQMKSLKREDTSVYYCYFTGGPYDFTRWSEFDHWGQGTQVTVSS | low polyreactivity
QVQHVESGGGLVQAGGSHRLSCAASGSTFGSNDMRWYRQSPGKERQLVAAIRGIVGSTYYADSVKGRFTISRDHAKNTVYLQMNSLKPEDTAVYYCNKAEVSTYYQSSSTYGGYDYWGQGTQVTVSS | low polyreactivity
QVQHVESGGGLVQAGGSIRLSGAASGRIILGYDMGWYRQPPGKDRELVAAINSVASTNYADSVKGRFTISRDNAKNTVYLQMNSLKPEDTAVYYCAAVYFLVEADLPAYDYWGQGTQVTVSS | low polyreactivity
QVQHVESGGGLVQAGGSLRISCAASGSILDGYAMGWYRQAPGKEREFVAAITWSGGRTYYADSVKGRFTISRDNAMNTVYLQMNSLKPEDTAVYYCIAVTGSWRYDFWGQGSQVTVSS | high polyreactivity
QVQHVESGGGLVQAGGSLRISSAASGYIFDKYAMGRYRQAPGKERELVAAITYSGGSTYYADSVKGRFTISRDNAKNTVYLQMNSLIAEDTAVNYCAPEVRRSTLEFGYWRQGTQVTVSS | high polyreactivity
QVQHVESGGGLVQAGGSLRLICAASGLTFPYYAMGWYRQDAGKVSELVAAITWSGGTTDYADSVKGRFTISRDNAKNTVYFKMITLKPEDTAVYFCAARVLWKGYYWGQGTQVTVSS | low polyreactivity
QVQHVESGGGLVQAGGSLRLICAASGSTFGNYAMGWYRQAPGKERELVAAISTSGGSTYYADSVKGRFTISRDNAKNTVYLQMNSLKPEDTAVYYCANRLVRGRSRAVSDYYWGQGTQVTVSS | high polyreactivity
QVQHVESGGGLVQAGGSLRLSCAASFYVYAMGWYRQAPGKERELVAAITYSGGGTYYADSVKGRFTISRDNAKKTVYLQMYSLKPEDTAVYYCNARATAYGWRGYAGFEFDYWGQGTQVTVSS | low polyreactivity
QVQHVESGGGLVQAGGSLRLSCAASGFIFDCNTMGWYRQAPGKERELVATIDFSGTSTYYADSVKGRFTISRDNAKNTVYFQMNSLKPEDTAVYYCNAVRSGWGYFFCLNYWGQGTQVTVSS | low polyreactivity
QVQHVESGGGLVQAGGSLRLSCAASGFIFLYYAMGWYRQAHGQERELVAAISRSGGRTYYADSVKGRFTISRDTAKNTVYLQMNSLKPEDTAVYYCAADRLGSISGYDYWGQGTQVTVSS | high polyreactivity
QVQHVESGGGLVQAGGSLRLSCAASGFIFTANAMGWYRQAPGKERELVAGIRSGSSTYYADSVKGRFTISRDNAKNTVYLQLNSLKPEDTAVYYCNAEKFNFIYAYEYWGKGTQVTVSS | low polyreactivity
QVQHVESGGGLVQAGGSLRLSCAASGFIFTPYAMGWYRQAPGKEREFVASITWSGGSTNYADSVKGRFTISRDNAKNTVYLQMNSLKPEDTAVYYCNADTWSPNDYWGLGTQVTVSS | low polyreactivity
QVQHVESGGGLVQAGGSLRLSCAASGFIFWYYAMGLYRQAPGKERELVADISSGGSTNYADSVKGRFTISRDNAKNTVYLQMNSLKPDDTAVYYCAADTFRRDDYWGQGTQVTVSS | low polyreactivity

Sequence | polyreactivity (PSR sort gate)
QVQHVESGGGLVQAGGSLRLSCAASGFTFVYYVMGWYRQAPGKERELVAAINAGGGSTYYADSVKGRFTISRDNAKNTVYLQMNSLKPEDTAVYYCNARVRVRLGRNWSSYYYWGQGTQVTVSS | high polyreactivity
QVQHVESGGGLVQAGGSLRLSCAASGFTFYGNSMGWYRPAPGKERELVAGISWRGGSTYYADSVKGRFTISRDNAKNTVYLQMNSLKPEDTAVYYCAAYLWTNYYLWEYDYWGQGTQVTVSS | high polyreactivity
QVQHVESGGGLVQAGGSLRLSCAASGFTYVVYDMGWYRPAPGKERELVAVITNSGGSTYYADSEKGRFTISRDNAKNTVYLQMNSLKPEDTAVYYCNTENFYGSDIFDSWGQGTQVTVSS | low polyreactivity
QVQHVESGGGLVQAGGSLRLSCAASGGTFGSNTMGWYRQARGKERELVAAITSGVSTYYADSVKGRFTISRDNAKNTVYLQMNSLKPEDTAVFYCAADTTQVQGVEGDYWGQGTQVTVSS | low polyreactivity
QVQHVESGGGLVQAGGSLRLSCAASGIIFRENALGWDRQAPGKERELVAGISSGGNTNYADSGKGRFTISRDNAKNPVYLQMNSLNPEDTAVYYCNTDWYLPRYVLLGYFSGTEDYWGQGTQVTLSS | low polyreactivity
QVQHVESGGGLVQAGGSLRLSCAASGIIFSYNAMGWYRQAPGKERELVAAISSGGRTYYADSVKGRFTISRDNAKNTVYLQMNSLKPEDTAVYYCATTSPHRLYGYYYDYWGQGSQVTVSS | high polyreactivity
QVQHVESGGGLVQAGGSLRLSCAASGITFSFYAMGWYRQAPGKERELVAAINGRGGRTYYADSVKGRFTISRDNAKNTVYLQMNSLKPEDTAVYYCAAVVWSTDYDYWGQGTQVTVSS | low polyreactivity
QVQHVESGGGLVQAGGSLRLSCAASGLIFYYYDMGWYRQPPGKERELVAAISYNGGTTYYSDSVKGRFTISRDNAKNTVYLQMNSLKPEDTAVYYCASEQLVSGYDYWGQGTQVTVSS | low polyreactivity
QVQHVESGGGLVQAGGSLRLSCAASGLIYSYYTMGWYRQAPGKERDLVAAITGSGGTTYYADSVKGRFTISRDNAKNTVYIQMNSLKPEDTAVYYCATPPPEVWQRWYREYDYWGQGTQVTVSS | low polyreactivity
QVQHVESGGGLVQAGGSLRLSCAASGLTFYDYAMGWYRQAPGKERELVADIDFNGGSTSYADSVKGRFTISRDNAKNTVYLQMNSLKPEDTAVYYCAARIHGSWSFDYWGQGTQVTVSS | low polyreactivity
QVQHVESGGGLVQAGGSLRLSCAASGNIFYTNAMGWYRQATGKERELVAAISGSGGRTYYADSVKGRFTISRDNAKNTVYLQMNSLKPEDTAVYYCNAVRRDYYDRTYGYWGQGTQVTVSS | low polyreactivity
QVQHVESGGGLVQAGGSLRLSCAASGNTFLRYAMGWYIKAPGKERELVAAISRSGGSTYYADSVKGRFTISRDTAKNTVYLQMNSLKPEDTAVYYCAARRSSQPDKGYYYWGQGTQVTVSS | high polyreactivity
QVQHVESGGGLVQAGGSLRLSCAASGRIFALYAMGWYRQAPGKERELVAAITSGSTYYADSVKGRFTISRDNAKNTVYLQMNSLKPEDTAVYYCAADLSYWRGGHSRNYWGQGTQVTVSS | low polyreactivity
QVQHVESGGGLVQAGGSLRLSCAASGRIFGYYTMGWYRQAPGKERELVATIDWSGDSTYYADSVKGRFTISRDNAKNTVYLQMNSLKPEDTAVYYCAKRYYLYHYDSWGQGTQVTVSS | low polyreactivity
QVQHVESGGGLVQAGGSLRLSCAASGRIFHYYAMGWYRQAPGKERELVAAITFRGGNTYADSVKGRFTISRDNAKNTVYLQMNSLKPEDTAFYYCADSRLSGYYSRYGYWGQGTQVTVSS | high polyreactivity
QVQHVESGGGLVQAGGSLRLSCAASGRIFHYYAMGWYRQAPGKERELVATISRRGGTTYYADSVKGRFTISRDNAKNTVYLQMNSLKPEDTAVYYCAAKYFGTRYDYWGQGTQVTVSS | high polyreactivity
QVQHVESGGGLVQAGGSLRLSCAASGRIFVRNAMGWYIQAPGKERELVAAITSGASTYYADSVKGRFTISRDNAKYTVYFQMYSVKPEDTAVSYCAAQAVIASWWTVDYYYWGQGTQVTVSS | high polyreactivity
QVQHVESGGGLVQAGGSLRLSCAASGRIFYFNAMGWSSQAPGKERELVAAISGSGGDTYYADSVKGRFTISRDNAKNTVYLQMNSLKPEDTAVYYCAAEVYPWGQGTQVTVAS | low polyreactivity
QVQHVESGGGLVQAGGSLRLSCAASGRIFYGYAMGWYRQAPGKERELVAAISSSGGSTYYADSVKGRFTISRDIAKNTVYLQMNSLKPEDTAVYYCNAQRYRPGYWYDYWGQGTQVTVSS | high polyreactivity
QVQHVESGGGLVQAGGSLRLSCAASGRIFYSNTMGWYRQAPGKERELVAAITWRGGRTHYADSVKGRFTISRDNAKNTVYLQMNSLKPEDTAVYYCAARYIPIQYPSYRTWGGYSWGQGTQVTVSS | high polyreactivity
